Source: patent publication US20250313627A1 (FUSE BIOTHERAPEUTICS, published 2025)
Where two headings read alike, the source gives them in different places.

What was measured:
[1] = target: T1, human ROR1 (Receptor Tyrosine Kinase-Like Orphan Receptor 1) on the cell surface (human, UniProt Q01973 30-937); experiment: flow cytometry, B16-F10 cells expressing human ROR1 (high density)
T1 construct: whole, on cells; engineered into B16-F10 (high density) and LS174T (low density) cells; also called B16-F10-ROR1-H; LS174T-ROR1-L
Description: (§1) As shown in the tables below, mouse B16-F10 melanoma (Tables 9A-9F) or LS174T human colorectal adenocarcinoma (Tables 9G-9H) cells genetically engineered to express human ROR1 at high and low densities, respectively, were stained for flow cytometric analysis with 100 nM of humanized variants of the ROR1 specific VHHs, 5A1 or 2A11 in either a VHH-Fc format or the Ac13 format shown in FIG. 1. Cells were analyzed on a flow cytometer after the primary test article was fluorescently tagged with a goat anti human IgG-Fc specific PE secondary antibody. The positive control used was PE conjugated anti-human ROR1 clone 2A2. Negative controls included a PE labeled mouse IgG Ab, the secondary antibody only, the combination of a Hen Egg Lysozyme (HEL) specific antibody plus goat anti human IgG-Fc specific PE and Fluorescence Minus One (FMO). Other controls included the non-humanized version of 5A1-Fc (FUSE179), 2A11-Fc (FUSE112) and 5A1-Ac13 (FUSE488). Humanized variants were generated using computational design (FUSE489, FUSE497-498, FUSE563, FUSE569-570, and BI-HU9-VHH11-33), a yeast display library in which mutations were inserted into the Vernier zone residues of human framework indicated in GenBank accession number M99660 (FUSE524-525, FUSE589, FUSE597-598, FUSE537, FUSE661-662, BI-HU9-HK and BI-HU9-HK-1), and a second yeast display library in which mutations were inserted into the Vernier zone residues of human framework indicated in GenBank accession number AWH66715 and amino acid position 103 within CDR3 (FUSE559, FUSE590-596, BI-HU9-VH9-1, FUSE654-655 and FUSE661-662. Affinity matured variants of FUSE559 were also generated using computational design (F22158101-21; Table 9H).

[2] = target: T1, human ROR1 (Receptor Tyrosine …); experiment: as above; remark: listed apart in the source
Description: as §1

[3] = target: T1, human ROR1 (Receptor Tyrosine …); experiment: as above; remark: listed apart in the source
Description: as §1

[4] = target: T1, human ROR1 (Receptor Tyrosine …); experiment: flow cytometry on B16-F10 cells engineered to express human ROR1, secondary antibody to the IgG1 Fc
Description: As shown in FIG. 15 the apparent binding affinity (EC50-binding) of the ROR1 specific VHH-Fc incorporating either the non humanized VHH clone 5A1 (FUSE179; black circle), the humanized clone 5A1-FA9-HK1 (FUSE559; black square) or the humanized clone 5A1-HK1 (FUSE524; black triangle) was calculated. Shown is a non-linear x-y plot of binding to B16-F10 cell engineered to express human ROR1 relative to the concentration of test article used for staining. A Hen Egg Lysozyme (HEL)-specific antibody was used as the negative isotype control. Binding was measured via flow cytometry using a fluorescently labeled secondary antibody specific for the Fc domain of IgG1. A summary table of EC50s and maximum MFI is shown beneath under the graph.

T1 sequence (Q01973 30-937): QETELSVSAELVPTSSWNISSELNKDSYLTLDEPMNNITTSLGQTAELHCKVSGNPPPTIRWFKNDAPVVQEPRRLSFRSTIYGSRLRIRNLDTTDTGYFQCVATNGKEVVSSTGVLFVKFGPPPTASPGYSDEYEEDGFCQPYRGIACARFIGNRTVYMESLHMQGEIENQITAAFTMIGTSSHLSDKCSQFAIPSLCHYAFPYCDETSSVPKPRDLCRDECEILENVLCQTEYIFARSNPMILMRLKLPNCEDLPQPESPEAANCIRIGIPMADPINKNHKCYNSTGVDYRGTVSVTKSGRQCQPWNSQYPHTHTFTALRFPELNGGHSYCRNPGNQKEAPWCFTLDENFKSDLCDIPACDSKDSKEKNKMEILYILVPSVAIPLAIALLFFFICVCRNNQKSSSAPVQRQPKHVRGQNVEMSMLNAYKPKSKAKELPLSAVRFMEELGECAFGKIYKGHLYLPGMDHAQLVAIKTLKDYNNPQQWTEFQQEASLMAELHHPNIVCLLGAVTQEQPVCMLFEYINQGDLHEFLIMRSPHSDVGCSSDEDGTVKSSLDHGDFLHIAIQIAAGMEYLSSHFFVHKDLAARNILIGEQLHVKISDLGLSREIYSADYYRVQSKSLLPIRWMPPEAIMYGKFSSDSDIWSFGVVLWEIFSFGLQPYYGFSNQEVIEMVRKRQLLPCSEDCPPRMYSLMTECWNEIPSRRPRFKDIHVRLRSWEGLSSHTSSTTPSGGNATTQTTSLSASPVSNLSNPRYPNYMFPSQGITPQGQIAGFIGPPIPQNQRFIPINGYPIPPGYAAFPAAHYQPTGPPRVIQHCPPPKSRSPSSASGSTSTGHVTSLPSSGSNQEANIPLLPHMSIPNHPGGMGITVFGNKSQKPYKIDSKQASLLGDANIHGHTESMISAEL

B1: FUSE-570 (h5A1-FA18 Fc) (Fc fusion)
chain: QVQLVESGGGLVQPGGSLRLSCSASGYTNRLKCMGWFRQAPGKEREEIATISSGTGNTYYADSVKGRFTFSRDNSKNTLYLQMNSLRAEDTGMYYCAADVRPDGTTCHYNSGGQGTQVTVSS
notes: VHH-Fc format; not shown: Fc of the VHH-Fc format
Q: Which MFI [1] does the source give for B1 here?
A: 583

B2: FUSE-497 (h5A1-Ac13) (bispecific antibody, human IgG1, lambda, L234A L235A)
heavy: EVQLVESGGGLVQPGGSLRLSCAASGFTFSTYAMNWVRQAPGKGLEWVARIRSKYNNYATYYADSVKDRFTISRDDSKNTLYLQMNSLRAEDTAVYYCARHGNFGNSYVSWFAYWGQGTMVTVSSASTKGPSVFPLAPSSKSTSGGTAALGCLVKDYFPEPVTVSWNSGALTSGVHTFPAVLQSSGLYSLSSVVTVPSSSLGTQTYICNVNHKPSNTKVDKKVEPKSCDKTHTCPPCPAPEAAGGPSVFLFPPKPKDTLMISRTPEVTCVVVDVSHEDPEVKFNWYVDGVEVHNAKTKPREEQYNSTYRVVSVLTVLHQDWLNGKEYKCKVSNKALPAPIEKTISKAKGQPREPQVYTLPPSREEMTKNQVSLSCAVKGFYPSDIAVEWESNGQPENNYKTTPPVLDSDGSFFLVSKLTVDKSRWQQGNVFSCSVMHEALHNRFTQKSLSLSPGK
chain: EVQLLESGGGLVPRGGSLRLSCTASGYTNRLKCMGWFRQAPGKEREEIATISTGTGNTYYADSVKGRFTISRDNSRNTLYLQMKTLRAEDTAVYYCAADVRPDGTTCHYNSWGQGTQVTVSSEPKSSDKTHTCPPCPAPEAAGGPSVFLFPPKPKDTLMISRTPEVTCVVVDVSHEDPEVKFNWYVDGVEVHNAKTKPREEQYNSTYRVVSVLTVLHQDWLNGKEYKCKVSNKALPAPIEKTISKAKGQPREPQVYTLPPSREEMTKNQVSLWCLVKGFYPSDIAVEWESNGQPENNYKTTPPVLDSDGSFFLYSKLTVDKSRWQQGNVFSCSVMHEALHNHYTQKSLSLSPGK
light: QAVVTQEPSLTVSPGGTVTLTCRSSTGAVTTSNYANWVQQKPGQAPRGLIGGTNKRAPGTPARFSGSLLGGKAALTLSGVQPEDEAEYYCALWYSNLWVFGGGTKLTVLGQPKAAPSVTLFPPSSEELQANKATLVCLISDFYPGAVTVAWKADSSPVKAGVETTTPSKQSNNKYAASSYLSLTPEQWKSHRSYSCQVTHEGSTVEKTVAPTECSGGGGSGGGGSGGGGSGGGGSEVQLLESGGGLVPRGGSLRLSCTASGYTNRLKCMGWFRQAPGKEREEIATISTGTGNTYYADSVKGRFTISRDNSRNTLYLQMKTLRAEDTAVYYCAADVRPDGTTCHYNSWGQGTQVTVSS
notes: Format Ac13
Q: B2 was tested. Which MFI [2] did it give?
A: 811

B3: FUSE-563 (h5A1-FA11 Fc) (Fc fusion)
chain: EVQLLESGGGLVQPGGSLKLSCTASGYTNRLKCMGWFRQAPGKEREEIATISTGTGNTYYADSVKGRFTISQDRSKNTLYLQMNSLRAEDTAVYYCAADVRPDGTTCHYNSWGQGTLVTVSS
notes: as for B1
Q: How did the MFI [1] turn out when B3 was run?
A: 388

B4: FUSE-597 (h5A1-HK2 Fc) (Fc fusion)
chain: EVQLLESGGGLVQPGGSLRLSCAASGYTNRLKCMGWFRQAPGKERELASISTGTGNTYYADSVKGRFTISRDGSKNTLYLQMNSLRAEDTAVYYCAADVRPDGTTCHYNSRGQGTLVTVSS
notes: as for B1
Q: B4 was tested. Which MFI [3] did it give?
A: 10100

B5: FUSE-524 (h5A1-HK1_Fc) (Fc fusion)
chain: EVQLLESGGGLVQPGGSLRLSCAASGYTNRLKCMGWFRQAPGKERELASISTGTGNTYYADSVKGRFTISRDNSKNTLYLQMNSLKAEDTAVYYCAADVRPDGTTCHYNSRGQGTLVTVSS
notes: VHH-Fc format; also called humanized clone 5A1-HK1; 5A1-H1; not shown: Fc of the VHH-Fc format
Q: B5 was tested. Which MFI [2] did it give?
A: 6470

Q: What about the EC50 [4] of the same binder?
A: 2.74 nM

Q: What about the “Max MFI” value [4] of the same binder?
A: 7080 MFI

B6: FUSE-569 (h5A1-FA17 Fc) (Fc fusion)
chain: QVQLVESGGGLVQPGGSLRLSCSASGYTNRLKCMGWFRQAPGKERELASISTGTGNTYYADSVKGRFTISRDNSKNTLYLQMNSLRADDTAVYYCAADVRPDGTTCHYNSWGQGTQVTVSS
notes: as for B1
Q: For B6, which MFI [1] is on record?
A: 590

B7: FUSE-598 (h5A1-HK6 Fc) (Fc fusion)
chain: EVQLLESGGGLVQPGGSLRLSCAASGYTNRLKCMGWFRQAPGKERELASISTGTGNTYYADSVKGRFTISQDGSKNTLYLQMNSLRAEDTAVYYCAADVRPDGTTCHYNSRGQGTLVTVSS
notes: as for B1
Q: For B7, which MFI [3] is on record?
A: 9560
